From patent US20120321557A1 (FORERUNNER PHARMA RESEARCH, published 2012)

Assays:
human ICAM5 = target: T1, human ICAM5 (human, UniProt Q9UMF0 32-924); test: FACS on ICAM5-expressing BaF3 transfectant, anti-mouse IgG-FITC detection
T1 construct: also called ICAM5/BaF3 (cells that carry it)
T1 sequence: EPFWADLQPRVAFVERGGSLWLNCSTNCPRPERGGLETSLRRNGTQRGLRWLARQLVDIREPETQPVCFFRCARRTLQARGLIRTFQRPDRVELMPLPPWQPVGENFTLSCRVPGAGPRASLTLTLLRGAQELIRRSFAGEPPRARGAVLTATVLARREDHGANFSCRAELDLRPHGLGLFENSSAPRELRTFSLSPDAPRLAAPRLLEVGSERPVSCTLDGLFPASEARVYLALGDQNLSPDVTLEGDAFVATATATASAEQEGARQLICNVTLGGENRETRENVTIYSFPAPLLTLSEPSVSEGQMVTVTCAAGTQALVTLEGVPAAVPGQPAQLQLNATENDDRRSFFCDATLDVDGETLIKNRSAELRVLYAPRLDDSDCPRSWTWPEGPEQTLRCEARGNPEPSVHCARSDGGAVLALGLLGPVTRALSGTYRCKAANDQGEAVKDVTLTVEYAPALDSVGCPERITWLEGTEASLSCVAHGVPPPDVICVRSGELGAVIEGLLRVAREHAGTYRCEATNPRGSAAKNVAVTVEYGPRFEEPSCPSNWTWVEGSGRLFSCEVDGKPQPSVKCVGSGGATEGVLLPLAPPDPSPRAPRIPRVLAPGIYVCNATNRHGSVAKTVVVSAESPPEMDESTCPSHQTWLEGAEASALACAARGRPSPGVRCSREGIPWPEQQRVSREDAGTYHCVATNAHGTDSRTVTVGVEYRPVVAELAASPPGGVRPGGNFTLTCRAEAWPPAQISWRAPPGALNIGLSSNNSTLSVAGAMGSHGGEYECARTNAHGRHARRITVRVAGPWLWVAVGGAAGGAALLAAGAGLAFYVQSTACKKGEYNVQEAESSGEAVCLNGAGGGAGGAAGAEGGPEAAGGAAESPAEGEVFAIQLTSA
Procedure: (§1) Next, using these cell lines thus established, the cross-reactivity of IB23 with the ICAM family was analyzed. Each 10 μg/ml of the IB23 antibody, an anti-human ICAM1 antibody (R&D Systems, Inc., #BBA3), and an anti-human ICAM5 antibody (R&D Systems, Inc., #MAB1950) were reacted with ICAM1/BaF3 and ICAM5/BaF3. Then, after staining with an anti-mouse IgG-FITC antibody (Beckman Coulter #IM0819), the binding of each antibody was analyzed by FACS (Becton, Dickinson and Company).

human ICAM1 = target: T2, human ICAM1 (human, UniProt P05362 28-532); test: FACS on ICAM1-expressing BaF3 transfectant, anti-mouse IgG-FITC detection
T2 construct: also called ICAM1/BaF3 (cells that carry it)
T2 sequence (P05362 28-532 K469E limits assumed): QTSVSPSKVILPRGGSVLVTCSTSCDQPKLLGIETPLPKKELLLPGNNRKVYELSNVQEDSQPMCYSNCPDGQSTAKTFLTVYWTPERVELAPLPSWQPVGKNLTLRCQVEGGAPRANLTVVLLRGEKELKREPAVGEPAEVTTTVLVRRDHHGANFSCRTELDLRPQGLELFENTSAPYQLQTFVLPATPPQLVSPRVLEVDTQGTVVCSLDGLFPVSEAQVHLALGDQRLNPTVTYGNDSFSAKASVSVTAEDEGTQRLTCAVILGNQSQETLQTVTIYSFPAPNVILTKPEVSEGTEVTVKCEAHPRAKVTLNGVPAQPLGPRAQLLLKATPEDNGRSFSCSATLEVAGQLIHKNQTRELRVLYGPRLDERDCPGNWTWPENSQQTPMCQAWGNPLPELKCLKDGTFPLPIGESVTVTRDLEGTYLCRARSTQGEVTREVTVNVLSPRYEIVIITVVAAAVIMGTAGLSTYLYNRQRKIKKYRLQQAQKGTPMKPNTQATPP
Procedure: as §1

binding result (human ICAM5): no binding (tested: 10 µg/ml)
binding result (human ICAM1): no binding (tested: 10 µg/ml)
B1: mouse monoclonal antibody IB23 (antibody, V domains shown)
VH: QVQLQQSGAELAKPGASVKMSCKASGYTFTTYWMHWVKQRPGQGLEWIGYINPNTDYTEYNQKFKDKATLTADKSSSTAFMQLSSLTSEDSAVYYCASSRDAYHGTYWGQGTLVTVSA
VL: DIVMTQSPATLSVTPGDRVSLSCRASQSISDYLHWYQQKSHESPRLLIRYASQSISGIPSRFSGSGSGSDFTLSINNVEPEDVGVYYCQNGHNFPLTFGAGTKLELK
notes: Mouse hybridoma antibody purified on Protein G and detected with anti-mouse IgG-FITC; also called IB23 antibody; mouse IB23 antibody
